Changes are numbered by the printed parent chain.
T1: GFP-9S library array, motif 4 ND N98D;D124S (synthetic construct, N98D;D124S)
T1 chain: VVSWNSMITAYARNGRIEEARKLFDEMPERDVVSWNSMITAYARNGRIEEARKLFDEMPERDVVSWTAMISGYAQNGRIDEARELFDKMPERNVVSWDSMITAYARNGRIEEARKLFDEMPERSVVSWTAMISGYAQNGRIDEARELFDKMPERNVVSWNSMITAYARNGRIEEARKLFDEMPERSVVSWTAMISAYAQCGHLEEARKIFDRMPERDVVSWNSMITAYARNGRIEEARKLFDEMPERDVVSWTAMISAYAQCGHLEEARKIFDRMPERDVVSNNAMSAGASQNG

T2: GFP-9S library array, motif 4 ND N98P;D124T (synthetic construct, N98P;D124T)
T2 chain: T1 chain with D98P, S124T

T3: GFP-9S library array, motif 4 ND N98D;D124R (synthetic construct, N98D;D124R)
T3 chain: T1 chain with S124R

T4: GFP-9S library array, motif 4 ND N98T;D124A (synthetic construct, N98T;D124A)
T4 chain: T1 chain with D98T, S124A

T5: GFP-9S library array, motif 4 ND N98E;D124K (synthetic construct, N98E;D124K)
T5 chain: T1 chain with D98E, S124K


Experiments:
Test in all cases: high-throughput RNA pulldown from lysate on Ni-NTA beads; HRP: 50 mM Tris pH 8, 150 mM NaCl, 1 mM beta-mercaptoethanol, 50 ug/ml BSA, 3 ug/ml yeast RNA, 0.5% heparin; ITC and FP: Tris pH 8, 200 mM KCl, 5% glycerol; MST: 50 mM Tris pH 8, 200 mM NaCl, 1 mM DTT, BSA, heparin, 0.05% Tween 20
Settings in all cases: tags: N-terminal His-eGFP
[1] = biological target: T1, GFP-9S library array, motif 4 ND …
[2] = biological target: T2, GFP-9S library array, motif 4 ND …
[3] = biological target: T3, GFP-9S library array, motif 4 ND …
[4] = biological target: T4, GFP-9S library array, motif 4 ND …
[5] = biological target: T5, GFP-9S library array, motif 4 ND …

Binder	Kd ([1]; label: 5' Cy5)	Kd ([2]; label: 5' Cy5)	Kd ([3]; label: 5' Cy5)	Kd ([4]; label: 5' Cy5)	Kd ([5]; label: 5' Cy5)	Kd ([1]; label: 5' IRDye 800CW)	Kd ([2]; label: 5' IRDye 800CW)	Kd ([3]; label: 5' IRDye 800CW)	Kd ([4]; label: 5' IRDye 800CW)	Kd ([5]; label: 5' IRDye 800CW)
AUUACACGUGA (ssRNA) [Cy5-rpoA]	401 nM	176 nM	154 nM	107 nM	124 nM					
AUUAGACGUGA (ssRNA) [Cy5-rpoA-G]	260 nM	177 nM	155 nM	70.1 nM	155 nM					
AUUAUACGUGA (ssRNA) [IR-rpoA-U]						470 nM	179 nM	282 nM	173 nM	267 nM
AUUAAACGUGA (ssRNA) [IR-rpoA-A]						759 nM	405 nM	326 nM	52.8 nM	312 nM

Reference: article PMC8809517, “Cofactor-independent RNA editing by a synthetic S-type PPR protein”
